Experimental findings from publication PMC4641746 (Cell, 2015) are described below.

For test [1], the target named is Y46K/V66D mutant of H84T BanLec (recombinant, His-tagged) (Musa acuminata). The test can be described thus: 15N NMR spin relaxation.
The target of test [2] is Y46K/V66D mutant of WT BanLec (recombinant, His-tagged) (Musa acuminata). In words: 15N NMR spin relaxation.
Test [3] addresses T1, BanLec (banana lectin), recombinant His-tagged WT (Musa acuminata, UniProt O22321, H84T).
T1 sequence (O22321 1-141 H84T): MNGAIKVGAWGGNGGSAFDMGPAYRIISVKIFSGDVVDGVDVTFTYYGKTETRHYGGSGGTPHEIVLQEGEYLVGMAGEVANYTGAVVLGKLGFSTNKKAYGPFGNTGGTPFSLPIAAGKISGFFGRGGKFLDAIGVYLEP
In words: isothermal titration calorimetry. It counts as binding. Conditions: dimannoside linkage not printed in main text.

Take “Y46K/V66D mutant of H84T BanLec (recombinant, His-tagged) (natural protein)”: the stoichiometry N in test [1] was 2.
For “Y46K/V66D mutant of WT BanLec (recombinant, His-tagged) (natural protein)”, the stoichiometry N in test [2] was 2.
Turning to dimannoside [M2], in test [3], the Ka is reported as 227.
